The record followed here is the RNAGym collection of RNA variant scans (doi:10.1073/pnas.2313332121).

To fix the notation:
B1: TPR t1 (parent)
chain: GACCAAUCUGCCCUCAGAGCUCGAGAACAUCUUCGGAUGCAGAGGAGGCAGGCUUCGGUGGCGCGAUAGCGCCAACGUCCUCAACCUCCAAUGCAUCCCACCACAUGAUGAUGCCUGAAGAGCCUUGGUUUUUUG

The variants in the data set derive from B1. The data set is described as follows: polymerase ribozyme fitness, log enrichment relative to wild type (log ratio); higher = more active; in vitro selection for triplet polymerase activity. The method, boiled down: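 Mutant libraries were PCR-built and transcribed for each subunit of a heterodimeric triplet polymerase ribozyme and selected for one round in triplicate at −7 °C, frozen, before gel excision of extended constructs and streptavidin-bead capture. Input and output libraries were Illumina-sequenced, keeping genotypes with ≥10 input reads and ≥1 read per output. Fitness is a logarithmic ratio of genotype to wild-type enrichment, in base 2, using inverse-variance-weighted replicate averages.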
As to C13G G48U C53A U59G, the “polymerase ribozyme fitness (log ratio)” value is -1.72.

On to C13U C20U G61U C114A, for which the “polymerase ribozyme fitness (log ratio)” value amounted to 0.523.

As for C13U A46C, the “polymerase ribozyme fitness (log ratio)” value was determined as 0.0656.

For C12U U30G G63U G113C G117C, the “polymerase ribozyme fitness (log ratio)” value was -7.89.

For the variant C13G G48C G63U A105C C124A, the “polymerase ribozyme fitness (log ratio)” value was -4.22.

With C13A G48A U96A, the “polymerase ribozyme fitness (log ratio)” value is -2.1.

C13G G51C G69U U78G: the “polymerase ribozyme fitness (log ratio)” value is -2.43.

Turning to C12U U55G U59C U133A, the “polymerase ribozyme fitness (log ratio)” value is -0.128.

Turning to C13G G117U, the “polymerase ribozyme fitness (log ratio)” value was -4.

In the case of C13G A16U C82A C89G, the “polymerase ribozyme fitness (log ratio)” value is -4.33.

As for C13G A29G G42A, the “polymerase ribozyme fitness (log ratio)” value is -5.99.

Take C13U C62U: the “polymerase ribozyme fitness (log ratio)” value is -0.0202.

Regarding C13U A24G A50U, the “polymerase ribozyme fitness (log ratio)” value is -1.91.

For the variant C13U A29U C56A G65A G77A, the “polymerase ribozyme fitness (log ratio)” value is -6.34.

With C13G G35C G47A C80U A105C G107U G117A, the “polymerase ribozyme fitness (log ratio)” value was -7.66.

C13U A50U C88G U112A G117A: the “polymerase ribozyme fitness (log ratio)” value was -2.57.

With C13G A41U C97U, the “polymerase ribozyme fitness (log ratio)” value is -3.81.

As to C13A U78G C88A A105U, the “polymerase ribozyme fitness (log ratio)” value was -4.55.

C13U G47U G135U: the “polymerase ribozyme fitness (log ratio)” value was -2.07.

As to C13A C40U, the “polymerase ribozyme fitness (log ratio)” value was -1.37.

As to C13G C22U G39U C53G, the “polymerase ribozyme fitness (log ratio)” value is -5.48.

Turning to C13U A46U C56A C85U, the “polymerase ribozyme fitness (log ratio)” value was -2.14.

For the variant C13A A83U, the “polymerase ribozyme fitness (log ratio)” value is -2.07.

For C13U A18G G36A G48U C72U A118U, the “polymerase ribozyme fitness (log ratio)” value is -6.03.

For C13A G63A A74C G128A, the “polymerase ribozyme fitness (log ratio)” value is -5.18.

As to C13G G17A U55G, the “polymerase ribozyme fitness (log ratio)” value was -5.5.

As to C12U G44U, the “polymerase ribozyme fitness (log ratio)” value was -0.985.

Consider C13U G17U C49U A50C, for which the “polymerase ribozyme fitness (log ratio)” value was -2.06.

Regarding C13A G39C C76G U106C, the “polymerase ribozyme fitness (log ratio)” value was -2.79.

With C13U C101U, the “polymerase ribozyme fitness (log ratio)” value is -0.0534.

Take C13U C101A: the “polymerase ribozyme fitness (log ratio)” value was -0.869.

Consider C13U C64U U92C U96C, for which the “polymerase ribozyme fitness (log ratio)” value was -1.14.

For the variant C13U C20U G44U G47U, the “polymerase ribozyme fitness (log ratio)” value is -3.8.

C12U U21A G35A: the “polymerase ribozyme fitness (log ratio)” value is -4.8.

As to C13A G48A G61A U106A A118G, the “polymerase ribozyme fitness (log ratio)” value is -2.04.

On to C13G C62U U125A, for which the “polymerase ribozyme fitness (log ratio)” value is -1.62.

With C13G C15U G120A, the “polymerase ribozyme fitness (log ratio)” value was -2.44.

For C13A C28G C34A A84C G110C, the “polymerase ribozyme fitness (log ratio)” value is -1.53.

For C13A A41G G63A U132C, the “polymerase ribozyme fitness (log ratio)” value is -4.55.

Take C13A G45A G113U G117C: the “polymerase ribozyme fitness (log ratio)” value is -6.5.

Take C13A A24G A29G C94A: the “polymerase ribozyme fitness (log ratio)” value is -4.2.

With C13G U59C C124A, the “polymerase ribozyme fitness (log ratio)” value came to 1.58.

Regarding C13A C49U U87G C123A U131G, the “polymerase ribozyme fitness (log ratio)” value is -0.403.

As to C13U G17U G63U U78C, the “polymerase ribozyme fitness (log ratio)” value is -3.99.

On to C13A G19U C82A U87G G120A, for which the “polymerase ribozyme fitness (log ratio)” value was -3.21.

For C13U G44U A50G C53U C56U G93U C124G, the “polymerase ribozyme fitness (log ratio)” value was -1.13.

Regarding C13U A50G C85G C123G, the “polymerase ribozyme fitness (log ratio)” value was -0.185.

As for C13A A50U G71U, the “polymerase ribozyme fitness (log ratio)” value was -2.57.

On to C13G A18G, for which the “polymerase ribozyme fitness (log ratio)” value was -5.42.

As for C13A C88U, the “polymerase ribozyme fitness (log ratio)” value is -2.04.

On to C13U C82G C99U, for which the “polymerase ribozyme fitness (log ratio)” value was -3.96.

With C13A C28G C34A G69A A84C G110C, the “polymerase ribozyme fitness (log ratio)” value was -4.89.

On to C13U C15U U59A A84C A90C U106G U130A, for which the “polymerase ribozyme fitness (log ratio)” value is -4.77.

In the case of C13G G52C C86U A118G, the “polymerase ribozyme fitness (log ratio)” value was -5.59.

For the variant C13A G71U A74G U109A, the “polymerase ribozyme fitness (log ratio)” value is -6.36.

As to C13A C49U G51U G69U A111U G120A, the “polymerase ribozyme fitness (log ratio)” value is -6.99.

C13U A29U C102U: the “polymerase ribozyme fitness (log ratio)” value was -3.96.

Consider C13G U54G, for which the “polymerase ribozyme fitness (log ratio)” value was -1.83.

Turning to C13A C94G C101A, the “polymerase ribozyme fitness (log ratio)” value is -4.8.

For C13G G60C G77U C101A G120C, the “polymerase ribozyme fitness (log ratio)” value was -1.78.

For the variant C13G C85G C86A, the “polymerase ribozyme fitness (log ratio)” value is -3.16.

As to C13U C20G, the “polymerase ribozyme fitness (log ratio)” value is -4.55.

In the case of C13U C79A C115A G127C, the “polymerase ribozyme fitness (log ratio)” value was -1.14.

For the variant C13U G39A C70A C104U, the “polymerase ribozyme fitness (log ratio)” value was -1.43.

For the variant C13U C72U A74C, the “polymerase ribozyme fitness (log ratio)” value was found to be 0.529.

Regarding C13U C22G A41U U78G U81C G122A, the “polymerase ribozyme fitness (log ratio)” value was -4.41.

Take C13U C88A A90C: the “polymerase ribozyme fitness (log ratio)” value is -1.03.

Consider C12U G69U U78G A100U, for which the “polymerase ribozyme fitness (log ratio)” value was -0.359.

As to C13G A41C A50U U133A, the “polymerase ribozyme fitness (log ratio)” value is -4.37.

C13A C49G C56G U96A: the “polymerase ribozyme fitness (log ratio)” value was -3.42.

In the case of C13U A26U G69C, the “polymerase ribozyme fitness (log ratio)” value is -4.28.

As to C13G G61C, the “polymerase ribozyme fitness (log ratio)” value is -2.94.

For the variant C13G G61A, the “polymerase ribozyme fitness (log ratio)” value is -1.99.

For the variant C13U C98U, the “polymerase ribozyme fitness (log ratio)” value was -1.1.

Consider C13G A24G A27G C56G A111C, for which the “polymerase ribozyme fitness (log ratio)” value is -7.83.

Consider C13U C20G C64A C73U C104A G110U A121U, for which the “polymerase ribozyme fitness (log ratio)” value is -7.37.

Take C13G U14A C64U C86A: the “polymerase ribozyme fitness (log ratio)” value is -3.76.

For the variant C13G C73U A91C, the “polymerase ribozyme fitness (log ratio)” value is -2.89.

Take C13U G17A C123A: the “polymerase ribozyme fitness (log ratio)” value was 0.664.

Consider C13G C49A G60U, for which the “polymerase ribozyme fitness (log ratio)” value was -2.3.

In the case of C13G G63C U112C G127C U129A, the “polymerase ribozyme fitness (log ratio)” value is -2.13.

On to C13U G61C A100U A111G G113A, for which the “polymerase ribozyme fitness (log ratio)” value is -5.12.

As to C13U C62U C85A U106A, the “polymerase ribozyme fitness (log ratio)” value is -1.41.
